According to US20230331827A1, “POTASSIUM CHANNEL INHIBITORS” (priority 2017, published 2023):
Positions count from the first letter of the chain named.

B1: KB_A02 (scFv on phage) (scFv, V domains shown)
VH: EVQLVESGGGLVRPGGSLRLSCAASGFTFSSYAMSWVRQAPGKGLEWVSAISGSGGSTYYADSVKGRFTISRDNTKNSLYLQMTSLRADDTAFYYCVKDFGPGYGTGWFDYWGPGTLVTVSS
VL: AVNWYQQLPGKAPKLLIYAAAKCPRILMRCKQDSDCLAGCVCGPNGFCGGASGVSDRFSGSIDSSSNSASLTISGLKPEDEGDYYCQSYDSSNRWVFGGGTKVTVLG
B2: KB_B11 (scFv on phage) (scFv, V domains shown)
VH: B1 VH
VL: TQPPSVSEAPRQRVTITCGSRPCPRILMRCKQDSDCLAGCVCGPNGFCGSHNWYQQLPGSSPTTVIYEDNQRPSGVPDRFSGSIDRSSNSASLTISGLKTEDEADYYCQSYDSSNHRVVFGGGTKLTVLG
B3: KB_A10 (scFv on phage) (scFv, V domains shown)
VH: B1 VH
VL: AVNWYQQLPGKAPKLLIYAAGGCPRILMRCKQDSDCLAGCVCGPNGFCGSNSGVPDRFSGSKSGNTASLTISGLQSEDEADYYCAAWDDSLSGVVFGGGTQLTVLG
B4: KB_C08 (scFv on phage) (scFv, V domains shown)
VH: B1 VH
VL: AVNWYQQLPGKAPKLLIYAAAVCPRILMRCKQDSDCLAGCVCGPNGFCGTRSGIPERFSGSKSGTSAFLAISGLRSEDEADYYCAAWDDSLSGVVFGGGTKLTVLG
B5: KB_A05 (scFv on phage) (scFv, V domains shown)
VH: B1 VH
VL: B4 VL with A21D, V22K, T50G, R51G, F68S, A86T, S90N, S92N
B6: KB_A11 (scFv on phage) (scFv, V domains shown)
VH: B1 VH
VL: YLNWYQQKPGKAPKLLIYAAEICPRILMRCKQDSDCLAGCVCGPNGFCGPSSGIPARFSGSGYGTDFTLTINNIESEDAAYYFCLQHDNFPYTFGQGTKVEIKR
B7: KB_C07 (scFv on phage) (scFv, V domains shown)
VH: B1 VH
VL: AVNWYQQLPGKAPKLLIYAAVGCPRILMRCKQDSDCLAGCVCGPNGFCGSASGVSDRFSGSKSGTSASLAISGLRSEDEADYYCASWDDSLRGYVFGTGTKVTVLG
B8: KB_B12 (scFv on phage) (scFv, V domains shown)
VH: B1 VH
VL: TQPPSVSEAPRQRVTITCGERPCPRILMRCKQDSDCLAGCVCGPNGFCGANNWYQQLPGSSPTTVIYEDNQRPSGVPDRFSGSIDSSSNSASLTISGLKTEDEADYYCQSYDSSNQVFGGGTKVTVLG
B9: KB_B02 (scFv on phage) (scFv, V domains shown)
VH: B1 VH
VL: B3 VL with G21V, S50T, N51G, V54I, D56E, S76A, A80G, V94P, Q101K
B10: KB_B01 (scFv on phage) (scFv, V domains shown)
VH: B1 VH
VL: B7 VL with V21A, S50T, A51R, S86A, G93A, V102L
B11: KB_A03 (scFv on phage) (scFv, V domains shown)
VH: B1 VH
VL: AVNWYQQLPGKAPKLLINAADRCPRILMRCKQDSDCLAGCVCGPNGFCGTNSGVPDRFSGSSSGNTASLTITGAQAEDEADYYCNSRDSSGNNWVFGGGTKVTVLG
B12: KB_A09 (scFv on phage) (scFv, V domains shown)
VH: B1 VH
VL: AVNWYQQLPGKAPKLLIYAAERCPRILMRCKQDSDCLAGCVCGPNGFCGTPSGVPDRFSGSIDTFSNSASLTISGLKTEDEADYYCQSYDSSHHWVFGGGTKLTVLG
B13: KB_A06 (scFv on phage) (scFv, V domains shown)
VH: B1 VH
VL: AVNWYQQLPGKAPKLLIYAAVRCPRILMRCKQDSDCLAGCVCGPNGFCGTPSGIPERFSGSIDRSTNSASLTISGLKTEDEADYYCQSYDSSNLNWVFGGGTKLTVLG
B14: KB_B10 (scFv on phage) (scFv, V domains shown)
VH: B1 VH
VL: QSVLTQLPSVSEAPRQRVTITCGRAMCPRILMRCKQDSDCLAGCVCGPNGFCGTGNWYQQHPGKAPKLIIFDVSKRPSGVPDRFSASKSGNTASLTISGLQAEDEADYYCNSYTSSNTWVFGGGTQLTVLG
B15: KB_C09 (scFv on phage) (scFv, V domains shown)
VH: B1 VH
VL: B12 VL with E21G, T50G, P51G, T64S, F65S, K77R, T78A, H93N
B16: KB_A01 (scFv on phage) (scFv, V domains shown)
VH: B1 VH
VL: YLNWYQQKPGKAPKLLIYAAEVCPRILMRCKQDSDCLAGCVCGPNGFCGGTSGVPSRFSGSRSGTEFTLTISSLQPEDFATYYCQKVDDYPLTFGGGTKVEIKR
B17: KB_C10 (scFv on phage) (scFv, V domains shown)
VH: B1 VH
VL: AVNWYQQLPGKAPKLLIYAAGPCPRILMRCKQDSDCLAGCVCGPNGFCGADSGVSDRFSGSKSGTSASLAITGLQAEDEGDYYCAAWDDSLNGLVFGGGTKVTVLG
B18: KB_A07_ShK (antibody, V domains shown)
VH: B1 VH
VL: NWYQQKPGKAPKLLIYAAGVRSCIDTIPKSRCTAFQCKHSMKYRLSFCRKTCGTCSRSGVPSRFSGSGSGTDFTLTISSLQPEDFATYYCQQGASPPYTFGQGTKVEIKR
B19: KB_A07_KTX (antibody, V domains shown)
VH: B1 VH
VL: DIQMTQSPSSLSASVGDRVTITCRASQSISSYLNWYQQKPGKAPKLLIYAAGVGVEINVKCSGSPQCLKPCKDAGMRFGKCMNRKCHCTPKSRSGVPSRFSGSGSGTDFTLTISSLQPEDFATYYCQQGASPPYTFGQGTKVEIKR
B20: KB_A07_MoKa-1 (antibody, V domains shown)
VH: B1 VH
VL: DIQMTQSPSSLSASVGDRVTITCRASQSISSYLNWYQQKPGKAPKLLIYAAGVINVKCSLPQQCIKPCKDAGMRFGKCMNKKCRCYSSRSGVPSRFSGSGSGTDFTLTISSLQPEDFATYYCQQGASPPYTFGQGTKVEIKRT
B21: KB_A02 Fab (Fab, V domains shown)
VH: B1 VH
VL: B1 VL
B22: KB_A06 Fab (Fab, V domains shown)
VH: B1 VH
VL: B13 VL
B23: KB_A01 Fab (Fab, V domains shown)
VH: B1 VH
VL: B16 VL
B24: KB_A07 Fab (Fab, V domains shown)
VH: B1 VH
VL: YLNWYQQKPGKAPKLLIYAAGVCPRILMRCKQDSDCLAGCVCGPNGFCGSRSGVPSRFSGSGSGTDFTLTISSLQPEDFATYYCQQGASPPYTFGQGTKVEIKR
B25: KB_A09 Fab (Fab, V domains shown)
VH: B1 VH
VL: B12 VL
B26: KB_A10 Fab (Fab, V domains shown)
VH: B1 VH
VL: B3 VL
B27: KB_A05 Fab (Fab, V domains shown)
VH: EVQLVESGGGLVRPGGSLRLSCAASGFTFSSYAMSWVRQAPGKGLEWVSAISGSGGSTYYADSVKGRFTISRDNTKNSLYLQMTSLRADDTAFYYCVDFGPGYGTGWFDYWGPGTLVTVSS
VL: B4 VL with A21D, V22K, T50G, R51G, F68S, A86T, S90N, S92N

The binders below were run against trypsin (assay: phage TRF on trypsin).
B1 gave a Tryspin binding signal (FU) of 183000 FU.
B2 gave a Tryspin binding signal (FU) of 10300 FU.
B3 showed a Tryspin binding signal (FU) of 38800 FU.
Work on B4 yielded a Tryspin binding signal (FU) of 76800 FU.
B5 gave a Tryspin binding signal (FU) of 121000 FU.
With B6 the Tryspin binding signal (FU) was 16400 FU.
B7 showed a Tryspin binding signal (FU) of 43300 FU.
For B8, the Tryspin binding signal (FU) was 17400 FU.
B9 showed a Tryspin binding signal (FU) of 116000 FU.
B10 was tested, and the Tryspin binding signal (FU) was 57700 FU.
Work on B11 yielded a Tryspin binding signal (FU) of 28700 FU.
Binder B12 has a Tryspin binding signal (FU) of 57700 FU.
Binder B13 has a Tryspin binding signal (FU) of 24400 FU.
In the case of B14, the Tryspin binding signal (FU) is reported as 9270 FU.
Work on B15 yielded a Tryspin binding signal (FU) of 89400 FU.
In the case of B16, the Tryspin binding signal (FU) is reported as 20200 FU.
Work on B17 yielded a Tryspin binding signal (FU) of 119000 FU.

Each binder was assayed against human Kv1.3 (human) (UniProt P22001) (assay: cell-based or functional assay).
human Kv1.3 (human), sequence (P22001 whole entry): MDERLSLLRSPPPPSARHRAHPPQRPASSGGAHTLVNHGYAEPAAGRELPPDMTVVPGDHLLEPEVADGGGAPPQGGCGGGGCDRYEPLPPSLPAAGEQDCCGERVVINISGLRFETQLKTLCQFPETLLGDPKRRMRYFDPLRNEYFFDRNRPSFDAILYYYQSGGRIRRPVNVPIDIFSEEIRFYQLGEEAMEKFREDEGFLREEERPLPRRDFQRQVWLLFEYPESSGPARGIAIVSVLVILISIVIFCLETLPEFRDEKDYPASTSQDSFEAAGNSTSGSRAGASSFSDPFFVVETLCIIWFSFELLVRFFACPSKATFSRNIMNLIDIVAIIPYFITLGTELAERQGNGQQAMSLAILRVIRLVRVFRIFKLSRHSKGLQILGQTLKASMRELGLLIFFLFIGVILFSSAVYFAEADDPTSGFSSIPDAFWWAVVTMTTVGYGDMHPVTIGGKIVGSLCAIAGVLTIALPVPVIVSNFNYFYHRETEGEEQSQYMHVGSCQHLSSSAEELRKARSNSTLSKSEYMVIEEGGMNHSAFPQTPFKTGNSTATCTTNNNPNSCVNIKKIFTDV
Work on B18 yielded an IC50, huKv1.3 current, QPatch patch clamp of 40 nM.
Binder B19 has an IC50, huKv1.3 current, QPatch patch clamp of 900 nM.
B20 showed an IC50, huKv1.3 current, QPatch patch clamp of over 10000 nM.

The binders below were run against trypsin (assay: TRF, 10 ug/mL Fab on trypsin).
For B21, the TRF signal was 255000.
B22 gave a TRF signal of 242000.
B23 was tested, and the TRF signal was 55600.
B24 gave a TRF signal of 226000.
Work on B25 yielded a TRF signal of 161000.
In the case of B26, the TRF signal is reported as 68700.
B27 showed a TRF signal of 218000.

These binders were tested against trypsin (assay: TRF, 0.6 ug/mL Fab on trypsin).
Work on B21 yielded a TRF signal of 93800.
In the case of B22, the TRF signal is reported as 108000.
Binder B23 has a TRF signal of 2390.
Work on B24 yielded a TRF signal of 108000.
B25 showed a TRF signal of 21000.
In the case of B26, the TRF signal is reported as 14600.
B27 was tested, and the TRF signal was 46700.

Each binder was assayed against trypsin (assay: TRF, 2.4 ug/mL Fab on trypsin).
For B21, the TRF signal was 221000.
B22 showed a TRF signal of 212000.
Work on B23 yielded a TRF signal of 16600.
Binder B24 has a TRF signal of 201000.
Binder B25 has a TRF signal of 84100.
With B26 the TRF signal was 71900.
B27 gave a TRF signal of 65400.
